Source: publication PMC4963197, “Phosphorylation acts positively and negatively to regulate MRTF-A subcellular localisation and activity” (eLife, 2016)

Molecular target: G-actin, P68135
Assay: size exclusion chromatography
Details: chain shown with the change

- other: actins (apparent stoichiometry of G-actin binding): 2.3
B1: MRTF-A(67–199) L74A; L78A; S98D (protein)
chain: LSERKNVAQLKAQQRRTREELVSQGIMPPLKDPAAFHEQRRSLERARTEDYLKRKIRSRPERAELVRMHILEETSAEPSLQAKQLKLKRARLADDLNEKIAQRPGPMELVEKNILPVESSLKEAIIVGQVNYP
